# Data from PMC11606652.
# Target: Kluyveromyces marxianus GCN2 histidyl-tRNA synthetase-like (HRSL) domain, residues 996-1,511 (Kluyveromyces marxianus)
# Assay: SEC
substance,measurement,value
"Kluyveromyces marxianus GCN2 histidyl-tRNA synthetase-like (HRSL) domain, residues 996-1,511 (domain or fragment)",stoichiometry N,2
